Numbering of substitutions follows the chain as printed.
B1: unnamed (protein)
chain: MSNPYQRGPNPTRSALTADGPFSVATYTVSRLSVSGFGGGVIYYPTGTSLTFGGIAMSPGYTADASSLAWLGRRLASHGFVVLVINTNSRFDGPDSRASQLSAALNYLRTSSPSAVRARLDANRLAVAGHSMGGGGTLRIAEQNPSLKAAVPLTPWHTDKTFNTSVPVLIVGAEADTVAPVSQHAIPFYQNLPSTTPKVYVELCNASHIAPNSNNAAISVYTISWMKLWVDNDTRYRQFLCNVNDPALCDFRTNNRHCQL
B2: unnamed (protein)
chain: MANPYERGPDPTESSIEAVRGPFAVAQTTVSRLQADGFGGGTIYYPTDTSQGTFGAVAISPGFTAGQESIAWLGPRIASQGFVVITIDTITRLDQPDSRGRQLQAALDHLRTNSVVRNRIDPNRMAVMGHSMGGGGALSAAANNTSLEAAIPLQGWHTRKNWSSVRTPTLVVGAQLDTIAPVSSHSEAFYNSLPSDLDKAYMELRGASHSVSNTPDTTTAKYSIAWLKRFVDDDLRYEQFLCPAPDDFAISEYRSTCPF
B3: unnamed (protein)
chain: B2 chain with I179W, S210L
B4: unnamed (protein)
chain: B2 chain with R205C, S210L, S251C
B5: unnamed (protein)
chain: B2 chain with S210N
B6: unnamed (protein)
chain: B2 chain with L93F, Q95Y, S210L
B7: unnamed (protein)
chain: B2 chain with S210I
B8: unnamed (protein)
chain: B2 chain with S210L
B9: unnamed (protein)
chain: B2 chain with S210W
B10: unnamed (protein)
chain: B2 chain with I179F, S210L
B11: unnamed (protein)
chain: B2 chain with S210K
B12: unnamed (protein)
chain: B2 chain with S210Y

Tests used:
pcPET (post-consumer) = assay: Proxy for plastic degradation [Released monomer concentration (HPLC/LC-MS) (MHET+TPA+BHET)]; details: pH 8; part of the chain shown
gfPET = assay: Proxy for plastic degradation [Relative activity]; details: pH 8

Row | Protein | Proxy for plastic degradation (pcPET (post-consumer)) | Proxy for plastic degradation (gfPET) | Proxy for plastic degradation (gfPET; part of the chain shown)
1 | B1 | 90 mM |  | 
2 | B2 |  | 94% | 
3 | B3 |  | 23% | 
4 | B4 | 62 mM |  | 100%
5 | B5 |  | 97% | 
6 | B6 | 198 mM |  | 100%
7 | B7 |  | 54% | 
8 | B8 | 70 mM |  | 
9 | B9 |  | 85% | 
10 | B10 |  | 9% | 
11 | B11 |  | 48% | 
12 | B12 |  | 68% | 
